Measurements as given in patent US20150266949A1 (INFLARX, published 2015).
Numbering of substitutions follows the chain as printed.

B1: INab308 (antibody, V domains shown)
VH: QVQLQQSGPQLVRPGTSVKISCKASGYSFTTFWMDWVKQRPGQGLEWIGRIDPSDSESRLDQRFKDRATLTVDKSSSTVYMQLSSPTSEDSAVYYCARGNDGYYGFAYWGQGTLVTVSS
VL: DIVLTQSPASLAVSLGQRATISCKASQSVDYDGDSYMKWYQQKPGQPPKLLIYAASNLQSGIPARFSGSGSGTDFTLNIHPVEEEDAATYYCQQSNEDPYTFGGGTKLEIK
notes: Mouse monoclonal antibody from a hybridoma (BALB/c mice immunized with recombinant human C5a), purified from ascites on protein A; said to be bivalent
B2: INab708 (antibody, V domains shown)
VH: VQLLESGAELMKPGASVKISCKATGNTFSGYWIEWVKQRPGHGLEWIGEILPGSGSTNYNEKFKGKATLTADTSSNTAYMQLSSLTSEDSAVYYCTRRGLYDGSSYFAYWGQGTLVTVSA
VL: B1 VL with K38N, Q59G, D86V, S95N, Y100L, G104A, K107L, I110L
notes: as for B1

Key:
human C5a [1] = molecular target: T1, human C5a (human, UniProt P01031 678-751); assay: cell-based or functional assay
T1 sequence: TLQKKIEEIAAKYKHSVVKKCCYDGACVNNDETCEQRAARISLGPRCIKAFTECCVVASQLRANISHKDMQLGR

human C5a [2] = molecular target: T1, human C5a; assay: cell-based or functional assay; remark: listed apart in the source
human C5a [3] = molecular target: T1, human C5a; assay: method not stated (Table 3, column Affinity)

Binder | blocking activity to C5a bioactivity (C5a-induced lysozyme release assay), molar ratio of antibody to C5a 1:2 (human C5a [1]) [%] | Blocking activity (inhibition of C5a-induced lysozyme release from human whole blood cells) at a ratio of Ab to C5a of ½:1 (human C5a [2]) [%] | Kd (human C5a [3]) [pM]
B1 | 94 | ≥ 90 | 500
B2 | 100 | ≥ 90 | 510
